Measured values: publication PMC4820748, “Structural basis for the membrane association of ankyrinG via palmitoylation” (Scientific Reports, 2016)

Molecular target: the molecule itself
Test: crystal structure; oxidized form, C121 crystal; sitting-drop vapor diffusion at 20 °C; reservoir 10 mM MgCl2-hexahydrate, 50 mM Tris-HCl (pH 7.5), 1.6 M (NH4)2SO4; asymmetric unit holds one dimeric molecule

B1: AnkG (R1-R5), head-section of the membrane-binding domain of rat ankyrin-G (domain or fragment)
chain: GTKSDANASYLRAARAGHLEKALDYIKNGVDVNICNQNGLNALHLASKEGHVEVVSELLQREANVDAATKKGNTALHIASLAGQAEVVKVLVTNGANVNAQSQNGFTPLYMAAQENHLEVVRFLLDNGASQSLATEDGFTPLAVALQQGHDQVVSLLLENDTKGK
notes: two extra residues, Gly-Thr, left at the N-terminus after the TEV cleavage; In the oxidized form two chains are linked by a disulfide bond between the two Cys70 residues; in the reduced form Cys70 is free; also called ANK3 (R1-R5); AnkG palmitoylation domain; source: E. coli BL21(DE3)pLysS, purified (nickel column, TEV cleavage, superdex200 gel filtration); not shown: His tag, N-terminal, cleaved
  stoichiometry N: 2
